Experiments:
[1] = target: T1, human PAC1 receptor extracellular domain (ECD) (human, UniProt P41586 24-153); assay: yeast-displayed Fab, FACS, 10 nM PAC1 receptor ECD
T1 construct: also called PAC1 receptor ECD; PAC1 ECD
T1 sequence: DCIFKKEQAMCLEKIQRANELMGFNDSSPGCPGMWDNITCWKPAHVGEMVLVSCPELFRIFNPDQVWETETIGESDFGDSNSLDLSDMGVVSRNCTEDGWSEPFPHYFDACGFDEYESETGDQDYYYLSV

[2] = target: T2, human CGRP receptor extracellular domain (ECD) (human, UniProt Q16602 23-138; O60894 27-117); assay: yeast-displayed Fab, FACS, 1 nM human CGRP receptor ECD
T2 construct: also called CGRP receptor ECD; human CGRP receptor ECD
T2 sequence (Q16602 23-138 limits assumed, chain 1 of 2): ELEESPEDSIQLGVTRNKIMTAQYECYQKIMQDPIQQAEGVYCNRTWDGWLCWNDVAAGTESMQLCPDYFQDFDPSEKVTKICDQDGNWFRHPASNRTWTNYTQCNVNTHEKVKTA
T2 sequence (O60894 27-117 limits assumed, chain 2 of 2): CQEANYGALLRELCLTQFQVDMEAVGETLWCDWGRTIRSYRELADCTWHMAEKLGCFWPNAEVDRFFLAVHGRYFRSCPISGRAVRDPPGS

[3] = target: T2, human CGRP receptor extracellular …; assay: yeast-displayed Fab, FACS, 10 nM human CGRP receptor ECD
[4] = target: T3, cynomolgus monkey CGRP receptor (cynomolgus monkey, UniProt A0A2K5VQ71 34-472); assay: yeast-displayed Fab, FACS, detergent-solubilized lysate of cynomolgus CGRP receptor/HEK cells vs blank cells
T3 construct: whole, on cells; Presented as detergent-solubilized lysate of HEK cells expressing the cynomolgus receptor; also called Cyno CGRP Receptor; Cynomolgus Monkey CGRP Receptor/HEK detergent-solubilized cell lysate
T3 sequence (A0A2K5VQ71 entry or part of it): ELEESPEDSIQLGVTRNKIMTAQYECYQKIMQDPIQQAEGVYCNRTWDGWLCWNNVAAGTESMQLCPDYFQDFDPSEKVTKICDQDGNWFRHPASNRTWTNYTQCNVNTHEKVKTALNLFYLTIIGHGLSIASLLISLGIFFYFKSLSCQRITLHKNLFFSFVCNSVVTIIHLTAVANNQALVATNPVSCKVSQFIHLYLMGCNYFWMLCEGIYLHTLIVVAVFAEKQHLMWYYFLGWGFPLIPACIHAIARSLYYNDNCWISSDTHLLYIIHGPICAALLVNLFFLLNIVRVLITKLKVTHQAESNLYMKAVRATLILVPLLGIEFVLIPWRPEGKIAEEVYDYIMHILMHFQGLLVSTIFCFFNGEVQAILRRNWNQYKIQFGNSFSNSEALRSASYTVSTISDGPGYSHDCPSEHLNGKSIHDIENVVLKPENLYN

[5] = target: T4, human CGRP receptor (human CRLR / human RAMP1 heterodimer) (human, UniProt Q16602 23-461; O60894 27-148); assay: yeast-displayed Fab, FACS, detergent-solubilized lysate of human CGRP receptor-expressing cells vs blank cells
T4 construct: Full-length receptor: endogenous on SK-N-MC (HTB-10) cells in the cAMP assay; also called hCGRP receptor on SK-N-MC (HTB-10) cells; Human CGRP Receptor/AMID detergent-solubilized cell lysate
T4 sequence (Q16602 23-461 limits assumed, chain 1 of 2): as the sequence (A0A2K5VQ71 entry or part of it) above, with N55D, V431L counted along it
T4 sequence (O60894 27-148 limits assumed, chain 2 of 2): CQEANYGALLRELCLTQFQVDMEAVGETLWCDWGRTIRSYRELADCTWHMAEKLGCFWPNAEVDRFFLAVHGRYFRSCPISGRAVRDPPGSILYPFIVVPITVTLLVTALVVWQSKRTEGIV

[6] = target: T5, soluble CGRP receptor (extracellular domains of human CRLR and human RAMP1) (human, UniProt Q16602 23-133; O60894 26-117); assay: SPR (Biacore T200), antibody captured by goat anti-human Fc, soluble CGRP receptor as analyte, 1:1 model
T5 construct: the tag and the thrombin site are not described; also called soluble human CGRP receptor; CGRP receptor ECD
T5 sequence (Q16602 23-133, chain 1 of 2): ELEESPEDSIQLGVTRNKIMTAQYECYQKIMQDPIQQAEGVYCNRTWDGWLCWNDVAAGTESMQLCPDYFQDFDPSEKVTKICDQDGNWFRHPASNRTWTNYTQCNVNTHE
T5 sequence (O60894 26-117, chain 2 of 2): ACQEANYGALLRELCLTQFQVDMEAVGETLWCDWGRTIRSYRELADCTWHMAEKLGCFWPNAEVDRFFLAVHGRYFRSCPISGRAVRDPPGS

| Binder | Mutant vs. 4E4.2 Parent B/D Ratio [1] | Normalized Binding Signal/Display Signal (B/D) [1] | Mutant vs. 4E4.2 Parent B/D Ratio [2] | Normalized Binding Signal/Display Signal (B/D) [2] | Mutant vs. 4E4.2 Parent B/D Ratio [3] | Normalized Binding Signal/Display Signal (B/D) [3] | Cyno CGRP Receptor/Blank Cells Specific Binding [4] | Mutant vs. 4E4.2 Parent Specific Binding Ratio [4] | Human CGRP Receptor/Blank Cells Specific Binding [5] | Mutant vs. 4E4.2 Parent Specific Binding Ratio [5] | Kd [6] | koff [6] | kon [6] |
| --- | --- | --- | --- | --- | --- | --- | --- | --- | --- | --- | --- | --- | --- |
| anti-CGRP receptor variant 09, yeast-displayed Fab (Fab, V domains shown, also called Variant Ab ID 09) VH: QVQLVESGGGVVQPGRSLRLSCAASGFTFSSFGMHWVRQAPGKGLEWVAVISFAGEIDYYVDSVKGRFTISRDNSKNTLFLQMNSLRAEDTAVYYCARDRLNYYESSGYYHYKYYGMAVWGQGTTVTVSS VL: QSVLTQPPSVSAAPGQKVTISCSGSSSNIGNNYVSWYQQLPGTAPKLLIYDNNKRPSGIPDRFSGSKSGTSATLGITGLQTGDEADYYCGTWDSRLSAVVFGGGTKLTVLG | 1.6 fold | 0.17 ratio | 3 fold | 0.38 ratio | 10.6 fold | 1.62 ratio | 2.3 ratio | 1.2 fold | 10.4 ratio | 1.3 fold |  |  |  |
| anti-CGRP receptor variant 10, yeast-displayed Fab (Fab, V domains shown, also called Variant Ab ID 10) VH: QVQLVESGGGVVQPGRSLRLSCAASGFFFGSYGMHWVRQAPGKGLEWVAVISFAGEIEHYVDSVKGRFTISRDNSKNTLFLQMNSLRAEDTAVYYCARDRLNYYESSGYYHYKYYGMAVWGQGTTVTVSS VL: QSVLTQPPSVSAAPGQKVTISCSGSSSNIGNNYVSWYQQLPGTAPKLLIYDNNKRPSGIPDRFSGSKSGTSATLGITGLQTGDEADYYCGTWDSRLSAVVFGGGTKLTVLG | 0.9 fold | 0.1 ratio | 3.3 fold | 0.4 ratio | 13.3 fold | 2.04 ratio | 3 ratio | 1.6 fold | 20.7 ratio | 2.6 fold |  |  |  |
| anti-CGRP receptor variant 13, yeast-displayed Fab (Fab, V domains shown, also called Variant Ab ID 13) VH: QVQLVESGGGVVQPGRSLRLSCAASGFTFSSFGMHWVRQAPGKGLEWVAVISFDGSIKYSVDSVKGRFTISRDNSKNTLFLQMNSLRAEDTAVYYCARDRLNYYESSGYYHYKYYGMAVWGQGTTVTVSS VL: QSVLTQPPSVSAAPGQKVTISCSGSRSNIGRRTVSWYQQLPGTAPKLLIYDNNKRPSGIPDRFSGSKSGTSATLGITGLQTGDEADYYCGTWDSRLSAVVFGGGTKLTVLG | 1 fold | 0.11 ratio | 2.9 fold | 0.35 ratio | 9.8 fold | 1.51 ratio | 4.8 ratio | 2.5 fold | 14.6 ratio | 1.8 fold |  |  |  |
| anti-CGRP receptor variant 14, yeast-displayed Fab (Fab, V domains shown, also called Variant Ab ID 14) VH: QVQLVESGGGVVQPGRSLRLSCAASGFTFSSFGMHWVRQAPGKGLEWVAVISFDGSIKYSVDSVKGRFTISRDNSKNTLFLQMNSLRAEDTAVYYCARDRLNYYESSGYYHYKYYGMAVWGQGTTVTVSS VL: QSVLTQPPSVSAAPGQKVTISCSGSSSNIGNNYVSWYQQLPGTAPKLLIYDNNKRPSGIPDRFSGSKSGTSATLGITGLQTGDEADYYCGTWDSWHRVVTFGGGTKLTVLG | 0.7 fold | 0.08 ratio | 1 fold | 0.12 ratio | 2.2 fold | 0.33 ratio | 2.2 ratio | 1.1 fold | 13.5 ratio | 1.7 fold |  |  |  |
| anti-CGRP receptor variant 15, yeast-displayed Fab (Fab, V domains shown, also called Variant Ab ID 15) VH: QVQLVESGGGVVQPGRSLRLSCAASGFTFSSFGMHWVRQAPGKGLEWVAVISFDGSIKYSVDSVKGRFTISRDNSKNTLFLQMNSLRAEDTAVYYCARDRLNYYESSGYYHYKYYGMAVWGQGTTVTVSS VL: QSVLTQPPSVSAAPGQKVTISCSGSSSNIGNNYVSWYQQLPGTAPKLLIYDNNKRPSGIPDRFSGSKSGTSATLGITGLQTGDEADYYCGTWDWWRKAVIFGGGTKLTVLG | 0.9 fold | 0.1 ratio | 1.3 fold | 0.16 ratio | 2.7 fold | 0.42 ratio | 4.2 ratio | 2.2 fold | 11.9 ratio | 1.5 fold |  |  |  |
| anti-CGRP receptor variant 11, yeast-displayed Fab (Fab, V domains shown, also called Variant Ab ID 11) VH: QVQLVESGGGVVQPGRSLRLSCAASGFWFDTFGMHWVRQAPGKGLEWVAVISFAGEDTHYVDSVKGRFTISRDNSKNTLFLQMNSLRAEDTAVYYCARDRLNYYESYGYYGYHYYGMAVWGQGTTVTVSS VL: QSVLTQPPSVSAAPGQKVTISCSGSRSNIGRYSVSWYQQLPGTAPKLLIYENMFRPRGIPDRFSGSKSGTSATLGITGLQTGDEADYYCGTWDYRMQAVVFGGGTKLTVLG | 1.5 fold | 0.16 ratio | 11 fold | 1.36 ratio | 22 fold | 3.38 ratio | 5.3 ratio | 2.8 fold | 9.5 ratio | 1.2 fold |  |  |  |
| wild-type 4E4 anti-CGRP receptor monoclonal antibody (antibody, human IgG2, lambda, V domains shown, also called WT; 4E4 Ab) VH: QVQLVESGGGVVQPGRSLRLSCAASGFTFSSFGMHWVRQAPGKGLEWVAVISFDGSIKYSVDSVKGRFTISRDNSKNTLFLQMNSLRAEDTAVYYCARDRLNYYDSSGYYHYKYYGMAVWGQGTTVTVSS VL: QSVLTQPPSVSAAPGQKVTISCSGSSSNIGNNYVSWYQQLPGTAPKLLIYDNNKRPSGIPDRFSGSKSGTSTTLGITGLQTGDEADYYCGTWDSRLSAVVFGGGTKLTVLG |  |  |  |  |  |  |  |  |  |  | 0.028 µM | 0.00054 s⁻¹ | 20000 M⁻¹ s⁻¹ |
| 4E4 heavy chain D54A single-point alanine variant antibody (antibody, V domains shown, Recombinantly expressed as a monoclonal antibody) VH: QVQLVESGGGVVQPGRSLRLSCAASGFTFSSFGMHWVRQAPGKGLEWVAVISFAGSIKYSVDSVKGRFTISRDNSKNTLFLQMNSLRAEDTAVYYCARDRLNYYDSSGYYHYKYYGMAVWGQGTTVTVSS VL: QSVLTQPPSVSAAPGQKVTISCSGSSSNIGNNYVSWYQQLPGTAPKLLIYDNNKRPSGIPDRFSGSKSGTSTTLGITGLQTGDEADYYCGTWDSRLSAVVFGGGTKLTVLG |  |  |  |  |  |  |  |  |  |  | 0.18 µM | 0.0026 s⁻¹ | 15000 M⁻¹ s⁻¹ |
| 4E4 heavy chain K113A single-point alanine variant antibody (antibody, V domains shown, Recombinantly expressed as a monoclonal antibody) VH: QVQLVESGGGVVQPGRSLRLSCAASGFTFSSFGMHWVRQAPGKGLEWVAVISFDGSIKYSVDSVKGRFTISRDNSKNTLFLQMNSLRAEDTAVYYCARDRLNYYDSSGYYHYAYYGMAVWGQGTTVTVSS VL: QSVLTQPPSVSAAPGQKVTISCSGSSSNIGNNYVSWYQQLPGTAPKLLIYDNNKRPSGIPDRFSGSKSGTSTTLGITGLQTGDEADYYCGTWDSRLSAVVFGGGTKLTVLG |  |  |  |  |  |  |  |  |  |  | 0.033 µM | 0.0006 s⁻¹ | 18000 M⁻¹ s⁻¹ |
| 4E4 light chain K67A single-point alanine variant antibody (antibody, V domains shown, Recombinantly expressed as a monoclonal antibody) VH: QVQLVESGGGVVQPGRSLRLSCAASGFTFSSFGMHWVRQAPGKGLEWVAVISFDGSIKYSVDSVKGRFTISRDNSKNTLFLQMNSLRAEDTAVYYCARDRLNYYDSSGYYHYKYYGMAVWGQGTTVTVSS VL: QSVLTQPPSVSAAPGQKVTISCSGSSSNIGNNYVSWYQQLPGTAPKLLIYDNNKRPSGIPDRFSGSASGTSTTLGITGLQTGDEADYYCGTWDSRLSAVVFGGGTKLTVLG |  |  |  |  |  |  |  |  |  |  | 0.029 µM | 0.00046 s⁻¹ | 16000 M⁻¹ s⁻¹ |
| 4E4 light chain R95A single-point alanine variant antibody (antibody, V domains shown, Recombinantly expressed as a monoclonal antibody) VH: QVQLVESGGGVVQPGRSLRLSCAASGFTFSSFGMHWVRQAPGKGLEWVAVISFDGSIKYSVDSVKGRFTISRDNSKNTLFLQMNSLRAEDTAVYYCARDRLNYYDSSGYYHYKYYGMAVWGQGTTVTVSS VL: QSVLTQPPSVSAAPGQKVTISCSGSSSNIGNNYVSWYQQLPGTAPKLLIYDNNKRPSGIPDRFSGSKSGTSTTLGITGLQTGDEADYYCGTWDSALSAVVFGGGTKLTVLG |  |  |  |  |  |  |  |  |  |  | 0.043 µM | 0.00077 s⁻¹ | 18000 M⁻¹ s⁻¹ |
| 4E4 light chain Y33A single-point alanine variant antibody (antibody, V domains shown, Recombinantly expressed as a monoclonal antibody; also called L-Y33A) VH: QVQLVESGGGVVQPGRSLRLSCAASGFTFSSFGMHWVRQAPGKGLEWVAVISFDGSIKYSVDSVKGRFTISRDNSKNTLFLQMNSLRAEDTAVYYCARDRLNYYDSSGYYHYKYYGMAVWGQGTTVTVSS VL: QSVLTQPPSVSAAPGQKVTISCSGSSSNIGNNAVSWYQQLPGTAPKLLIYDNNKRPSGIPDRFSGSKSGTSTTLGITGLQTGDEADYYCGTWDSRLSAVVFGGGTKLTVLG |  |  |  |  |  |  |  |  |  |  | 0.011 µM | 0.00027 s⁻¹ | 24000 M⁻¹ s⁻¹ |

Source: patent US20220363770A1 (Amgen, published 2022)
